In patent US20160032014A1 (Amgen, published 2016):
Where a chain is given by its changes, count along the chain named. Numbers in names are those of the source. Where two headings read alike, the source gives them in different places.

B1: SS-13991 (antibody, V domains shown)
VH: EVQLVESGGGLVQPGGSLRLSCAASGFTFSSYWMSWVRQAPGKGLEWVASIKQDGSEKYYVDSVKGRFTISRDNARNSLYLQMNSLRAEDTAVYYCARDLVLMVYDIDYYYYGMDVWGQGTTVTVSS
VL: DIVMTQSPLSLPVTPGEPASISCRSSQSLLHSNGHNYLDWYLQKPGQSPQLLIYLGLNRAHGVPDRFSGSGSGTDFTLKISRVEAEDVGVYYCMQALQTPLTFGGGTKVEIKR
notes: HC WT, LC Tyr38(35)His, Ser68(57)Leu, Ser72(61)His; also called A02
B2: SS-13993 (antibody, V domains shown)
VH: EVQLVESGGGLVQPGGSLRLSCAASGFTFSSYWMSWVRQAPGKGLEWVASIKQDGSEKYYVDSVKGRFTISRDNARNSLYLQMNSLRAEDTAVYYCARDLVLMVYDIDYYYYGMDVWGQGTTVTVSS
VL: B1 VL with H61S, S72H
notes: HC WT, LC Tyr38(35)His, Ser68(57)Leu, Ser83(72)His; also called C02
B3: SS-15195 (antibody, V domains shown)
VH: not shown
VL: B1 VL
notes: HC I107M, LC Y35H, S57L, S61H
B4: SS-15505 (antibody, V domains shown)
VH: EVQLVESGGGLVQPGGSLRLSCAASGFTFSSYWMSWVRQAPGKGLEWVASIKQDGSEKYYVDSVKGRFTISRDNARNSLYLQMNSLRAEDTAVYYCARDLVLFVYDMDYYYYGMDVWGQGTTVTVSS
VL: B1 VL
notes: HC M103F/I107M, LC Y35H, S57L, S61H
B5: SS-15506 (antibody, V domains shown)
VH: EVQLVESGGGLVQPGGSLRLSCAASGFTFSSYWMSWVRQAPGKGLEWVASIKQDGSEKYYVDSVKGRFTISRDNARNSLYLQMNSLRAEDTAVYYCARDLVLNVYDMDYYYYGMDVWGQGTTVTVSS
VL: B1 VL
notes: HC M103N/I107M, LC Y35H, S57L, S61H
B6: SS-15508 (antibody, V domains shown)
VH: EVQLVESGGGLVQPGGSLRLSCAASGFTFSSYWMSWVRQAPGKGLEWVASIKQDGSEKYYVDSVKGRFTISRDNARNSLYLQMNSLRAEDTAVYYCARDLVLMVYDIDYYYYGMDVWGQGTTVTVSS
VL: B1 VL with N33F
notes: HC WT, LC N33F, Y35H, S57L, S61H
B7: SS-14894 (antibody, V domains shown)
VH: not shown
VL: DIVMTQSPLSLPVTPGEPASISCRSSQSLLHSGNGYNYLDWYLQKPGQSPQLLIYLGLNRASGVPDRFSGSGSGTDFTLKISRVEAEDVGVYYCMQALQTPLTFGGGTKVEIKR
notes: HC I107M, LC G33, S57L
B8: SS-15498 (antibody, V domains shown)
VH: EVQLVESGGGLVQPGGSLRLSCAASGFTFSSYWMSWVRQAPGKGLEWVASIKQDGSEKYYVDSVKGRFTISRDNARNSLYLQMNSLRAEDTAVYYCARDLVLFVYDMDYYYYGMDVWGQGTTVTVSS
VL: B7 VL with L98I, Q99H
notes: No entry of its own
B9: SS-15499 (antibody, V domains shown)
VH: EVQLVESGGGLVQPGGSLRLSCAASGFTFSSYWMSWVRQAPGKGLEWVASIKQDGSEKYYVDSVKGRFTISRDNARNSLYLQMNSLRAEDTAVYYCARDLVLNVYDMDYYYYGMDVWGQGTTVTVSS
VL: B7 VL with L98I, Q99H
notes: No entry of its own
B10: SS-15515 (antibody, V domains shown)
VH: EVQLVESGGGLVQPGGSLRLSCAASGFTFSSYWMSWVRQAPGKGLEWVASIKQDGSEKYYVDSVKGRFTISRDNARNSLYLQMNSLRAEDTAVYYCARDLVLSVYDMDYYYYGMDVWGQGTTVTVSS
VL: B7 VL with L58M, L98I, Q99H
notes: HC VH6, LC G33, S57M, L97I, Q98H
B11: SS-15516 (antibody, V domains shown)
VH: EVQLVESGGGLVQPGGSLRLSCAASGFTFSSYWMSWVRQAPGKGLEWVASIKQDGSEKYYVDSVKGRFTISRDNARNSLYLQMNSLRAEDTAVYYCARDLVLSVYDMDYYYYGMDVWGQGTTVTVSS
VL: B7 VL with L58F, L98I, Q99H
notes: HC VH6, LC G33, S57F, L97I, Q98H
B12: SS-15518 (antibody, V domains shown)
VH: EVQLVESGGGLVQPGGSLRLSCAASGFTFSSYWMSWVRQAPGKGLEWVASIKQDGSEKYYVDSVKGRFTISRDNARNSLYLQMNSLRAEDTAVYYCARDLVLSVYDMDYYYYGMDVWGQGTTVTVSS
VL: B7 VL with L58N, L98I, Q99H
notes: HC VH6, LC G33, S57N, L97I, Q98H
B13: SS-15519 (antibody, V domains shown)
VH: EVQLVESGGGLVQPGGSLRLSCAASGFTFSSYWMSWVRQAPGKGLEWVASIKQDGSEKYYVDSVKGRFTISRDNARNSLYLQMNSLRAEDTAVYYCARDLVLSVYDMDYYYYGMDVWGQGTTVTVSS
VL: B7 VL with L58W, L98I, Q99H
notes: HC VH6, LC G33, S57W, L97I, Q98H
B14: SS-15520 (antibody, V domains shown)
VH: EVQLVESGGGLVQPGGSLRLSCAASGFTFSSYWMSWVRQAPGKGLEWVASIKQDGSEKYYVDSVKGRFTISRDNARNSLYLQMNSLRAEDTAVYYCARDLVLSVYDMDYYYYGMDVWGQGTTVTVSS
VL: B7 VL with L58Q, L98I, Q99H
notes: HC VH6, LC G33, S57Q, L97I, Q98H

Key:
[1] = biological target: T1, human PCSK9 (self-cleaved, mature, secreted PCSK9 comprising amino acids 31 to 692 of SEQ ID NO: 2) (human, UniProt Q8NBP7 31-692, biotinylated in the ELISAs); experiment: solution equilibrium, BIAcore, pH 7.4
T1 construct: Limits 31-692 are stated for the immunogen; the assays only say human PCSK9; also called huPCSK9; rhu PCSK9

[2] = biological target: T1, human PCSK9 (self-cleaved, mature, …); experiment: solution equilibrium, BIAcore
[3] = biological target: T1, human PCSK9 (self-cleaved, mature, …); experiment: solution equilibrium, BIAcore, pH 5.5
[4] = biological target: T1, human PCSK9 (self-cleaved, mature, …); experiment: SPR pH 7.4
[5] = biological target: T1, human PCSK9 (self-cleaved, mature, …); experiment: SPR pH 7.4; remark: listed apart in the source

Binder | Kd [1] [nM] | KD ratio pH 5.5/pH 7.4 [2] | Kd [3] [nM] | Kd [4] [nM] | koff [4] [s⁻¹] | kon [4] [M⁻¹ s⁻¹] | Kd [5] [nM] | koff [5] [s⁻¹] | kon [5] [M⁻¹ s⁻¹]
B1 | 0.29 | 9.7 | 2.8 | – | – | – | – | – | –
B2 | 0.23 | 12.2 | 2.8 | – | – | – | – | – | –
B3 | 0.035 | 12.9 | 0.45 | 0.0611 | 1.98e-05 | 325000 | 0.0611 | 1.98e-05 | 325000
B4 | – | – | – | 0.0763 | 1.98e-05 | 260000 | 0.0763 | 1.98e-05 | 260000
B5 | – | – | – | 0.245 | 5.89e-05 | 240000 | 0.245 | 5.89e-05 | 240000
B6 | – | – | – | 1.57 | 0.00092 | 585000 | 1.57 | 0.00092 | 585000
B7 | 0.17 | 8.8 | 1.5 | – | – | – | – | – | –
B8 | – | – | – | 0.123 | 4.14e-05 | 335000 | 0.123 | 4.14e-05 | 335000
B9 | – | – | – | 0.199 | 5.98e-05 | 301000 | 0.199 | 5.98e-05 | 301000
B10 | 0.12 | 12.5 | 1.5 | – | – | – | – | – | –
B11 | 0.12 | 8.3 | 1 | – | – | – | – | – | –
B12 | 0.14 | 8.6 | 1.2 | – | – | – | – | – | –
B13 | 0.083 | 10.4 | 0.86 | – | – | – | – | – | –
B14 | 0.17 | 7.1 | 1.2 | – | – | – | – | – | –
